Here are results for three molecules from publication PMC6987408, “Structural Insights Into the Transcriptional Regulation of HigBA Toxin–Antitoxin System by Antitoxin HigA in Pseudomonas aeruginosa” (Frontiers in Microbiology, 2019).

As a reminder, the stoichiometry N is a count of units in the complex or per binding partner.

Series [1] deals with PaHigA (Pseudomonas aeruginosa PAO1) (UniProt Q9HVC1). Briefly: ITC. The conditions noted are these: ITC: 20 mM Tris pH 8.0, 100 mM NaCl, 5% glycerol, 20 C, 400 uM DNA into 100 uM PaHigA; EMSA: DNA annealed in 10 mM NaCl, 20 mM Tris pH 8.0, 30 min at room …. On the technique in general: Mobility shift assays separate free from complexed probe on a gel.
Series [2] concerns the molecule itself. Put plainly: SAXS; apo PaHigA in solution at 1, 3 and 5 mg/ml, 22°C; oligomeric state from the fit to the dimer's theoretical curve and from the calculated molecular mass.
For series [3], the target named is PaHigA (Pseudomonas aeruginosa PAO1, UniProt Q9HVC1 1-101). Briefly: crystal structure; 2.50 A; water-mediated contacts; ITC: 20 mM Tris pH 8.0, 100 mM NaCl, 5% glycerol, 20 C, 400 uM DNA into 100 uM PaHigA; EMSA: DNA annealed in 10 mM NaCl, 20 mM Tris pH 8.0, 30 min at room temperature, 5% native gel at 20 C. The settings on record: protein: recombinant; tags: C-terminal His6; chain copies: 4.

On to PhigBA 28-bp duplex, for which the Ka in series [1] worked out at 7.5e+13 M^-2.

B1: PaHigA (Pseudomonas aeruginosa antitoxin HigA) (natural protein, Pseudomonas aeruginosa PAO1, UniProt Q9HVC1 1-101, looked up)
chain: MATNGMRPIHPGEILRDEFLMEFDISPAALARALKVSAPTVNDIVREQRGISADMAIRLGRYFDTSAQFWMNLQSEYSLATAYAANGKQIEHEIEPLLAHG
notes: Antitoxin HigA of P. aeruginosa PAO1, gene higA (PA4674), full length amplified from the PAO1 genome; Cloned NcoI/BamHI into pET28b with a C-terminal His tag; the construct comes from Guo et al., 2019; also called PaHigA-His; apo PaHigA; source: E. coli BL21(DE3) pLysS, purified (nickel-nitrilotriacetic acid resin, gel filtration on Superdex 200); not shown: His6, C-terminal, kept
On to B1, for which the “stoichiometry N” value in series [2] is 2.

B2: PhigBA 18-bp duplex (dsDNA)
DNA 1: ACGCTTAACGTTAAGGGT
DNA 2: ACCCTTAACGTTAAGCGT
In the case of B2, the binding result in series [3] is “binds”.
